B1: anti-human FAP bivalent monospecific IgG comprising heavy chain variable region SEQ ID NO: 15 (antibody, V domains shown)
VH: QLQLQESGPGLVKPSETLSLTCTVSGGSISSSSYFWAWIRQPPGKGLEFIGNIYYSGSTYYNPSLKSRVTISVDTSKNQFSLKLSSVTAADTAVYYCARPSYYGSGNYYFAFWGQGTLVTVSS
VL: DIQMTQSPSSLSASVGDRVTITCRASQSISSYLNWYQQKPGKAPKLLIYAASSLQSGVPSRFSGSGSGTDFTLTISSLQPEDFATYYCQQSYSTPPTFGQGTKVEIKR
notes: IgG1 format, common light chain VK1-39/JK1
B2: anti-human FAP bivalent monospecific IgG comprising heavy chain variable region SEQ ID NO: 19 (antibody, V domains shown)
VH: EVQLVESGGGLVKPGGSLRLSCAASGFPFNYAWMSWVRQAPGKGLEWVGRIKPKTSGGATDYAAPVKDRFTISRDDSRNTLYLQMNSLKTEDTAVYYCSAREDIWNFFFDLWGQGTLVTVSS
VL: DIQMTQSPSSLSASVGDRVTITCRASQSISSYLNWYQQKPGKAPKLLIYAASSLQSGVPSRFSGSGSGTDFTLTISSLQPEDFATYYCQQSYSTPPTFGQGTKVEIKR
notes: as for B1
B3: anti-human FAP bivalent monospecific IgG comprising heavy chain variable region SEQ ID NO: 11 (antibody, V domains shown)
VH: EVQLVESGGGLVQPGGSLRLSCAASGFTFSSYAMIWVRQAPGKGLEWVSAISGSGGYTFNADSVKGRFTMSRDNSKNTLYLQMNSLRAEDTAVYYCAKRDGGYEGGAFDIWGQGTLVTVSS
VL: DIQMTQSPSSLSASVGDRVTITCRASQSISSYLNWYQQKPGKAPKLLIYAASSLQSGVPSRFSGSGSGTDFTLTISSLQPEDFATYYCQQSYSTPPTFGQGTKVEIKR
notes: as for B1
B4: anti-human FAP bivalent monospecific IgG comprising heavy chain variable region SEQ ID NO: 69 (antibody, V domains shown)
VH: EVQLVETGGGLIQPGGSLRLSCAASGFTVSSNYMSWVRQAPGKGLEWVSVIYSGGSTYYADSVKGRFTISRDNSKNTLYLQMNSLRAEDTAVYYCARGPTDAYPYLDYLWGQGTLVTVSS
VL: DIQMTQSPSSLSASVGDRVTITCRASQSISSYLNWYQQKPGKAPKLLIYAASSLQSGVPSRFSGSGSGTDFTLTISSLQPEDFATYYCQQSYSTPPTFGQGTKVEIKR
notes: IgG1 format, common light chain VK1-39/JK1; also called human/mouse cross-reactive FAP IgG

This experiment addresses T1, cynomolgus FAP (cyFAP) expressed on 293FF cells (cynomolgus, UniProt Q12884 1-760 (human entry)).
T1 sequence: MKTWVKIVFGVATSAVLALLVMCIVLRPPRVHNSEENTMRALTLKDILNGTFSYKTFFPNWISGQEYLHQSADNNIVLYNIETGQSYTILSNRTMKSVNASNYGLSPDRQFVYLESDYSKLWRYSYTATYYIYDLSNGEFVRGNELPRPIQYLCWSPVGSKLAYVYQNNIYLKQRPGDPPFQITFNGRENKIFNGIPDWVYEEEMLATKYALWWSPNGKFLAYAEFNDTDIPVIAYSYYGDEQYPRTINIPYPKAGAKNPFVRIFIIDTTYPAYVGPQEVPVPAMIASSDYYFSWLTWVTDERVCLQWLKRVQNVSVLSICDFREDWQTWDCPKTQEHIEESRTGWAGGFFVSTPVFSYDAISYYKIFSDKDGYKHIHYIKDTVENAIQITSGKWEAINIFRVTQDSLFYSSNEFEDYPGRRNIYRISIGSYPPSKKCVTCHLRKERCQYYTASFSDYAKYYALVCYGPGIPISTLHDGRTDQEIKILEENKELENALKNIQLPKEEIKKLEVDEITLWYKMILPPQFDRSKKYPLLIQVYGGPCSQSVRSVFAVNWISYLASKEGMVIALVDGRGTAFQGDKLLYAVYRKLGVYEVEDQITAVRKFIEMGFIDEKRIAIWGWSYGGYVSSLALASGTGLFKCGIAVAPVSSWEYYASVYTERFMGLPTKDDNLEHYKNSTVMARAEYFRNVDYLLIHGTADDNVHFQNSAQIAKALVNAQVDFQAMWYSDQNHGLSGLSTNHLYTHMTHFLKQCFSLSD
Put plainly: FACS, 293FF cells stably expressing cyFAP, IgG at 2.5 ug/ml. As to the method: The binding of all test and control antibodies to the cells was tested at a single concentration of 2.5 ug/ml. Goat-anti-human IgG F(ab)2-PE (Invitrogen, H10104) was used as secondary antibody (1:100 in FACS buffer). Ab0625 was used at 10 ug/ml and its binding was detected using Ab0250 (Becton Dickinson, 550767) (1:100 in FACS buffer). The FACS buffer containing PBS (Gibco, cat. #10010-015), 0.5% BSA (Thermo Scientific, cat. #37525), and 2 mM EDTA (Invitrogen, cat. #15575-020) was kept ice cold throughout the assay.
The target cells were harvested, counted, and centrifuged for 5 min at 300 g at 4 °C. Cells were then resuspended in FACS buffer at a concentration of 1×10⁶ cells/ml and transferred (200,000 cells/well) to a U-bottom 96-well FACS plate (BD, cat. #353910). Cells were then centrifuged for 3 min at 300 g at 4° C. and supernatant was discarded. 50 μl of primary antibody solutions were added to the cells, mixed, and incubated for 30 min at 2-8° C. in the dark. Cells were washed by adding 150 μl FACS buffer and centrifuged for 3 min at 300 g at 4° C. Supernatant was discarded, and cells were washed again by adding 200 μl FACS buffer to the plate. Cells were then centrifuged for 3 min at 300 g at 4° C. and afterwards the supernatant was discarded. 50 μl of secondary antibody solutions were added to the cells, mixed, and incubated for 30 min at 2-8° C. in the dark. Cells were then washed by adding 150 μl FACS buffer to the plate and centrifuged for 3 min at 300 g at 4° ° C. Supernatant was discarded and cells were washed again by adding 200 μl FACS buffer to the plate and centrifuged for 3 min at 300 g at 4° C. Supernatant was discarded and cells were fixated by adding 100 μl/well ice-cold Fixation buffer (2% formaldehyde solution in PBS, Sigma-Aldrich, cat. #47608-250ML-F). Cells were incubated for 15 min on ice in the dark. Afterwards, 100 μl ice-cold PBS was added to the cells and cells were centrifuged for 3 at 300 g at 4° C. Supernatant was discarded and cells were resuspended in 120 μl FACS buffer.
For the molecule B1, the binding result is recorded as “binds”.

In the case of B2, the binding result is given as “binds”.

On to B3, for which the binding result was “binds”.

For B4, the binding result is listed as “binds”.

These data come from US20240218070A1 (MERUS N V, published 2024).
